Assay results as given in paper PMC12004702, “Characterization of a rhodopsin-phosphodiesterase from Choanoeca flexa to be combined with rhodopsin-cyclases for bidirectional optogenetic cGMP control” (The Journal of Biological Chemistry, 2025).

Substrate: [H][C@@]12COP(=O)(O)O[C@@]1([H])[C@@H](O)[C@H](n1cnc3c(=O)[nH]c(N)nc31)O2
Experiment: HPLC initial-rate assay, Michaelis-Menten fit, membrane fraction
Type: biochemical, Choanoeca flexa
Settings: 5 mM MgCl2, 20 mM Hepes, 100 mM NaCl, 5 mM DTT, 5% glycerol
[1] = light-adapted state (470 nm, 30 μW/mm^2)

B1: CfRhPDE1 (Choanoeca flexa) (protein)
chain: MSKAMTMREEAALELKRKGKVKNVAIATTSEVQKQGFFMMAVWIATVSILWLFSNPEASEAVFEKHGQLRVMYGATSVAFAFATALDVLAYVNAVSDEKRVLSGVLAYVDGAACLSYAAMASLPLYFILDSHNGNPIWLMRYAEWLITCPTLLYWCGLATRGERGAVADIATGDAMLLAGGALSSILPGWPSYFVFMGSVAAFVYVMTHMWGLFSKAMQPDFSPAPPLPRTALNLMRWEIVLSWTCFPMIEYSRRYFGLDYQTGEALNSIIDYAAKVGLAMIMVNCNLEQINAIKVEQMQSAMSGMVKVMRKTNARVELDGMDDDVKGWLLNEYAGDDGEDEVKVSSKSKRNQKSINPEEISASALFSWDFCSLDKSEEDLVGICIRVFRELKMIEVFDLDESKLRRFILGVRSRYNKNPFHNWKHAVMVLHTCYLFITQVAAEFCTDLEVLALLFAALCHDCDHNGVNNAFHINSRSDLALLYNDQSVLENHHCYSGFDVLYDKGNNFLDVLSEGDFKRFRSLVIDCILGTDMAHHASKLGKLEEINRLGGFSNLAENDEQRAFVMVTLLHTSDLYNPIKPFHITKKWANRLQREFNQQVEVESQMGLPSLPFMKGQGELALAKGEVGFITFVIRPWYVQLTNAFPKIDFLMDNIDTNLDMWKSIVESHE
notes: full-length, N-terminal Venus tag kept, no other change from WT; codon-optimized; membranes of ND7/23 cells; modelled as dimer
Km (darkness (dark-adapted state)): 4.4 ± 0.6 µM | kcat (darkness (dark-adapted state)): 2.0 ± 0.1 s⁻¹ | Km [1]: 1.9 ± 0.1 µM | kcat [1]: 4.7 ± 0.1 s⁻¹
